Patent US20230302148A1, “PHARMACEUTICAL COMPOSITION COMPRISING LONG-ACTING CONJUGATE OF TRIPLE GLUCAGON/GLP-1/GIP RECEPTOR AGONIST” (HANMI PHARM. CO., LTD., priority 2020, published 2023)
Bridges are numbered along the chain shown (N, C = ends). Where no end group is shown, it is not given here. [ ]: non-standard residue; d: D form. Aib = CC(C)(N)C(=O)O

Experiments:
FIGURE 5 = assay: FIGURE 5
Source text: Table printed on a drawing sheet, FIGURE 5

FIGURE 13 = assay: FIGURE 13
Source text: Table printed on a drawing sheet, FIGURE 13
W1 means Week 1 and W12 means Week 12.
First reader's note: The first row gives the substance together with its dose (mg/kg), and each result cell holds the value with its ± deviation in the same cell.

human GIP receptor = target: T1, human GIP receptor (human, UniProt P48546 22-466); assay: cell-based or functional assay
T1 sequence (looked up): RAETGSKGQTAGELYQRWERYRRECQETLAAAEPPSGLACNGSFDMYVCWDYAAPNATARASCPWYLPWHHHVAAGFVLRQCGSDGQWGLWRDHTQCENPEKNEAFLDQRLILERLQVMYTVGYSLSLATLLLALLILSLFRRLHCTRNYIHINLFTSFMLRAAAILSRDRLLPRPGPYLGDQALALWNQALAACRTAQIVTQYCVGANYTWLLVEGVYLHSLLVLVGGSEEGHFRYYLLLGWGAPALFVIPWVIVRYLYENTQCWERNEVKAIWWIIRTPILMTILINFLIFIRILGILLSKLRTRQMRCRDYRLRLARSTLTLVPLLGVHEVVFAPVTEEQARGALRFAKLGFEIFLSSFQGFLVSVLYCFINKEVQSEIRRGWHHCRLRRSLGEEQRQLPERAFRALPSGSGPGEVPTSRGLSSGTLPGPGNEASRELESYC

human GCG receptor = human GCG receptor (human, UniProt P47871 26-477); assay: cell-based or functional assay
Chain of human GCG receptor (P47871 26-477): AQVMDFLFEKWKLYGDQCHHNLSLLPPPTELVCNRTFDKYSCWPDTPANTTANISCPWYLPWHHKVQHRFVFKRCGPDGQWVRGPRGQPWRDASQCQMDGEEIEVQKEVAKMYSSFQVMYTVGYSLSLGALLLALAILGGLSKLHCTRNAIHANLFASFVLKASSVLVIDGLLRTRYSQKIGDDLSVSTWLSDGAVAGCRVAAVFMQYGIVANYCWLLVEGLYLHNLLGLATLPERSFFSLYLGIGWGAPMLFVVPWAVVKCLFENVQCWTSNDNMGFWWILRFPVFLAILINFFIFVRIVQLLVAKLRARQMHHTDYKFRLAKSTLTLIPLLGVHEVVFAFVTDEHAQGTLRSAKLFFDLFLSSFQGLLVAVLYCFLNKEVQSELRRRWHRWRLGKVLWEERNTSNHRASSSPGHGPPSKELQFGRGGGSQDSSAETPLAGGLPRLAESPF

human GLP-1 receptor = human GLP-1 receptor (human, UniProt P43220 24-463); assay: cell-based or functional assay

| Molecule | In vitro activity relative to native peptide (%) vs. GIP (human GIP receptor) | In vitro activity relative to native peptide (%) vs. Glucagon (human GCG receptor) | In vitro activity relative to native peptide (%) vs. GLP-1 (human GLP-1 receptor) | also measured |
| --- | --- | --- | --- | --- |
| LONG-ACTING CONJUGATE OF SEQ ID NO: 42 0.01 mg/kg (N=5) (Y[Aib]QGTFTSDYSKYLDEKRAKEFVQWLLDHHPSSGQPPPSC; lactam 16-20; not fully specified (residue 40); also: long-acting carrier conjugate) | – | – | – | Dose-normalized Cmax (ng/mL/mg) (FIGURE 5): 30.73 (13.34) ng/mL/mg; Tmax (hr) (FIGURE 5): 31.20 (10.733) hr |
| LONG-ACTING CONJUGATE OF SEQ ID NO: 42 0.01 mg/kg (Y[Aib]QGTFTSDYSKYLDEKRAKEFVQWLLDHHPSSGQPPPSC; lactam 16-20; not fully specified (residue 40); also: long-acting carrier conjugate) | – | – | – | Cmax (FIGURE 13): 31.22 ± 13.47 ng/mL; Tmax (FIGURE 13): 48.00 ± 12.00 h |
| LONG-ACTING CONJUGATE OF SEQ ID NO: 42 0.02 mg/kg (Y[Aib]QGTFTSDYSKYLDEKRAKEFVQWLLDHHPSSGQPPPSC; lactam 16-20; not fully specified (residue 40); also: long-acting carrier conjugate) | – | – | – | AUC0-168h (FIGURE 13): 11770.3 ± 7192.4 ng·h/mL; Tmax (FIGURE 13): 48.00 ± 22.22 h |
| H[Aib]QGTFTSDYSKYLDEKACKDFVQWLLDGGPSSGAPPPS (bridge 16-20) [triple agonist of SEQ ID NO: 32] | 8.8% | 1.7% | 151% | – |
| H[Aib]QGTFTSDYSKYLDEKACKEFVQWLLAQ (bridge 16-20) [triple agonist of SEQ ID NO: 31] | 2.4% | 2.2% | 135% | – |
| Y[Aib]QGTFTSDYSKYLDECRAKEFVQWLKNGGPSSGAPPPS (bridge 16-20) [triple agonist of SEQ ID NO: 24] | < 0.1% | 9.3% | 41.2% | – |
| H[Aib]QGTFTSDYSKYLDEKRAQEFVCWLLAQKGKKNDWKHNIT [triple agonist of SEQ ID NO: 28] | < 0.1% | 1.6% | 17.2% | – |
| H[Aib]QGTFTSDYSKYLDERACQDFVQWLLDQGGPSSGAPPPS [triple agonist of SEQ ID NO: 27] | 0.9% | 0.8% | 83.1% | – |
| H[Aib]QGTFTSDCSKYLDERAAQDFVQWLLDGGPSSGAPPPS [triple agonist of SEQ ID NO: 25] | < 0.1% | 0.1% | 82.6% | – |
| H[Aib]QGTFTSDYSKYLDEKAQKEFVQWLLDTC (bridge 16-20) [triple agonist of SEQ ID NO: 30] | 0.8% | 0.7% | 142% | – |
| H[Aib]QGTFTSDVSSYLLGQAAKQFIAWLVKGGGPSSGAPPPSC [triple agonist of SEQ ID NO: 3] | < 0.1% | < 0.1% | 1.8% | – |
| H[Aib]QGTFTSDYSKYLDEKAAKEFVQWLLNTC (bridge 16-20) [triple agonist of SEQ ID NO: 29] | < 0.1% | 6% | 38.5% | – |
| H[Aib]QGTFTSDYSIAMDEIHQKDFVNWLLAQKC (bridge 16-20) [triple agonist of SEQ ID NO: 33] | 10.4% | < 0.1% | 24.5% | – |
| H[Aib]QGTFTSDCSKYLDSRAAQDFVQWLLDGGPSSGAPPPS [triple agonist of SEQ ID NO: 26] | < 0.1% | 0.2% | 64.5% | – |
